According to paper PMC11076338, “ACRE, a class of AP2/ERF transcription factors, activates the expression of sweet potato ß-amylase and sporamin genes through the sugar-responsible element CMSRE-1”:

How the values were obtained:
Experiment in all cases: EMSA; EMSA: 15 mM HEPES-KOH pH 7.5, 25 mM KCl, 0.25 mM EDTA, 6% glycerol, 2 mM DTT, 20 fmol probe (Methods print 20 fg), 0.2-0.8 ug protein, room temperature 30 min
Conditions in all cases: protein: recombinant; tags: MBP (N-terminal); label: biotin as probe
[1] = target: T1, ACRE1 (Arabidopsis thaliana, UniProt Q9C591 1-216)
T1 sequence: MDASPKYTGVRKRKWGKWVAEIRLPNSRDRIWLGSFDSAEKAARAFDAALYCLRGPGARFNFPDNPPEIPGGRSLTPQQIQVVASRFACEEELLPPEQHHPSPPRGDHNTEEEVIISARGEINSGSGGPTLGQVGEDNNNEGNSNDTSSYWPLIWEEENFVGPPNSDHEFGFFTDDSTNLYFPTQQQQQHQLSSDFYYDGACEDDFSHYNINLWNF

[2] = target: T2, ACRE2 (ERF017) (Arabidopsis thaliana, UniProt Q84QC2 1-185)
T2 sequence: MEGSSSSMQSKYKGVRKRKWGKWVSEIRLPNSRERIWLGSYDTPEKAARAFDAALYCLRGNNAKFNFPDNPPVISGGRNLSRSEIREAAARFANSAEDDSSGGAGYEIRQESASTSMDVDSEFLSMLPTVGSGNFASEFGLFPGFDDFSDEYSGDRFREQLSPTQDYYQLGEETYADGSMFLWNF

[3] = target: T3, ORA47/ACRE3 (ERF018) (Arabidopsis thaliana, UniProt Q9S7L5 1-195)
T3 sequence: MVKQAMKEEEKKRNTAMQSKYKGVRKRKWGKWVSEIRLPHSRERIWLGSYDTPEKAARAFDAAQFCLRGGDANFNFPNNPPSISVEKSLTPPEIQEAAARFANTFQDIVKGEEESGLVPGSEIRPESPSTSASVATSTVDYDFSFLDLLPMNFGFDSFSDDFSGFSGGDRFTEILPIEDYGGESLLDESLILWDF

Measured: binding result

B1: SPO (dsDNA)
DNA 1: CTAGTACACTTGGACGGCCACAT
DNA 2: ATGTGGCCGTCCAAGTGTACTAG
binds: [1] | [2] | [3]

B2: DRE (dsDNA)
DNA 1: TCGAGTAAATCATGTCGGTTGAAAG
DNA 2: CTTTCAACCGACATGATTTACTCGA
binds: [1] | [2] | [3]

B3: BA (dsDNA)
DNA 1: CTAGTCTTAATGGACGGTATTGT
DNA 2: ACAATACCGTCCATTAAGACTAG
binds: [1] | [2] | [3]
